From patent US20070049521A1 (ENOBIA PHARMA, published 2007)
No end group written: not given here.

What was measured:
[1] = target: T1, human NPR-C (natriuretic peptide receptor C, clearance receptor), overexpressed on HEK293 cells (human, UniProt P17342 27-541); experiment: PLAP activity bound to NPR-C-transfected HEK293 cells, saturation binding
T1 construct: whole, on cells; also called natriuretic clearance receptor
T1 sequence (looked up): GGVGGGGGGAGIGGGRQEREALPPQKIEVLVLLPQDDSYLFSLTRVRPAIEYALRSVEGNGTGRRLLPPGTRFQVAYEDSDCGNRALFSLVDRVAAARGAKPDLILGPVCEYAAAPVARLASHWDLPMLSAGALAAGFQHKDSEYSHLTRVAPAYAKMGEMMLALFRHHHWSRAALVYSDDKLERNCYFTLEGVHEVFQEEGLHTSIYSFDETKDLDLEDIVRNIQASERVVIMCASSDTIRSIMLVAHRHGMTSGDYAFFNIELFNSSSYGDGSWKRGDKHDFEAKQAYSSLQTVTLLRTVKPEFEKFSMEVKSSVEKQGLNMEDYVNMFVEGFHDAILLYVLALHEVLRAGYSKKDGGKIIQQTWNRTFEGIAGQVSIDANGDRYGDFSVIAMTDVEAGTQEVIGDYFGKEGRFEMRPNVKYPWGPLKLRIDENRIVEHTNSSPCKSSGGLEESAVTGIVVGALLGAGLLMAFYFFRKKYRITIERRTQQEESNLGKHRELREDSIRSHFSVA
Description: (§1) To analyze the potential binding of Ostn to natriuretic receptors, a fusion protein (PLAP-Ostn) (FIG. 6) was generated as described above. This fusion protein comprised an N-terminal secreted placental alkaline phosphatase (PLAP) moiety linked to mature mouse Ostn (residues 29-130) (SEQ ID NO: 62). Conditioned media containing PLAP-mOstn was used to assess Ostn binding on transiently transfected cells.

[2] = target: T2, rat GC-A, overexpressed on HEK293 cells (rat, UniProt P18910 29-1057); experiment: PLAP activity bound to transiently transfected HEK293 cells
T2 construct: whole, on cells
T2 sequence (looked up): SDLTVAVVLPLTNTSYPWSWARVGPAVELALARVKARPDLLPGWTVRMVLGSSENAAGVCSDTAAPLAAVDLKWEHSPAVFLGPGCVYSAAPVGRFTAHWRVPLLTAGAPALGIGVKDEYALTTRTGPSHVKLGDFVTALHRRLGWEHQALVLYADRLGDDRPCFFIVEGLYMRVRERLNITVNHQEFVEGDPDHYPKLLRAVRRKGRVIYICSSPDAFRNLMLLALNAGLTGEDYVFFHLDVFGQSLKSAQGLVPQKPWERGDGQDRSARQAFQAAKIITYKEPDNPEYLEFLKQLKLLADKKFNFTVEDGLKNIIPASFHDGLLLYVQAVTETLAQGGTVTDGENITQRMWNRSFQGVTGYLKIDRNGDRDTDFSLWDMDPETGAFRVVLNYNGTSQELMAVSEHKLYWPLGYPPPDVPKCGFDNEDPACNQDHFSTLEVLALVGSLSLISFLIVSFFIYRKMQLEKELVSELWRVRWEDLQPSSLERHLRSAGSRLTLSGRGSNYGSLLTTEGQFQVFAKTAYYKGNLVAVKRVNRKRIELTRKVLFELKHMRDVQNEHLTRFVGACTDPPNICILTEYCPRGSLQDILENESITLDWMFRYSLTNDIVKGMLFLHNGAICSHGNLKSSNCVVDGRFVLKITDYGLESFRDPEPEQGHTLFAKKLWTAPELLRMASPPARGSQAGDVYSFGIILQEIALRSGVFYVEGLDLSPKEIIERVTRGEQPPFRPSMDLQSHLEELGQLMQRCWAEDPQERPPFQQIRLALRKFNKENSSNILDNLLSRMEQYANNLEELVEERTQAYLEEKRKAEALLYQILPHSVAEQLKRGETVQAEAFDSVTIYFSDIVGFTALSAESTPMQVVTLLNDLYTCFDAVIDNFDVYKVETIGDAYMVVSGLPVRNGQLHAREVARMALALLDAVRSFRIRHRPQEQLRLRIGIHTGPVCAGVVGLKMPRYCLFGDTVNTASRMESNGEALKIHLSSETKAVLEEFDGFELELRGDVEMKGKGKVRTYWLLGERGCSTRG
Description: as §1

[3] = target: T3, human GC-B, overexpressed on HEK293 cells (human, UniProt P20594 23-1047); experiment: as above
T3 construct: whole, on cells
T3 sequence (looked up): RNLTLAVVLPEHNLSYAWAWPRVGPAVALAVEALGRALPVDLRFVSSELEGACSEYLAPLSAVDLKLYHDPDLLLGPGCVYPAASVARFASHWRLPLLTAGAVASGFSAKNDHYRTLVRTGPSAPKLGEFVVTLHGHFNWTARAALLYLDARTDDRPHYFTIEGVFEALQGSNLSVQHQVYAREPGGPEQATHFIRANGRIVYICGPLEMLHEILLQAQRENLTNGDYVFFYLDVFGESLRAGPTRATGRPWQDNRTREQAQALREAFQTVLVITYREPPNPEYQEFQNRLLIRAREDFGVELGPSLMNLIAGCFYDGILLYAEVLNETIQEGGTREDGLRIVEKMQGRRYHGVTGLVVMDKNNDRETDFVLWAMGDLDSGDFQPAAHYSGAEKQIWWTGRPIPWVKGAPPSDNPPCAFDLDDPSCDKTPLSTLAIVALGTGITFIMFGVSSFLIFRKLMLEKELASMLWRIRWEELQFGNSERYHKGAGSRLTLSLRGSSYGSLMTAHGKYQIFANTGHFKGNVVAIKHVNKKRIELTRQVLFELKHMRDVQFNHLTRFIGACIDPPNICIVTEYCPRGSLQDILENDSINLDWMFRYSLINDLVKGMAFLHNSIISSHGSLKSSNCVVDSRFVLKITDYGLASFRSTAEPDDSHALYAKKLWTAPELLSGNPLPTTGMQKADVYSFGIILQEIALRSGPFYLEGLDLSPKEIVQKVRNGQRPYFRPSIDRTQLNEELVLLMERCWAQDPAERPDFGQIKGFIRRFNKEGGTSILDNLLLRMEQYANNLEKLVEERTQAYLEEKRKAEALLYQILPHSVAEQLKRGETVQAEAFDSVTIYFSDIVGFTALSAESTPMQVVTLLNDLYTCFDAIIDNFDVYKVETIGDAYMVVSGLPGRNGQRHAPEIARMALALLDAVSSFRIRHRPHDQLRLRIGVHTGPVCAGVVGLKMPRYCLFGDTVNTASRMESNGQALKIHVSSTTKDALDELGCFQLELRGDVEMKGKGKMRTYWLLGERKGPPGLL
Description: as §1

[4] = target: T1, human NPR-C (natriuretic peptide …); experiment: competition of ~30 nM PLAP-Ostn binding on NPR-C-transfected HEK293 cells
Method: To further validate the specificity and affinity of Ostn-NPR-C binding, competition experiments were conducted in NPR-C over-expressing cells. […] (SEQ ID NO: 71) lacking a part of NM2. […] (SEQ ID NO: 66) or Ostn[117-130] (SEQ ID NO: 71). […] (SEQ ID NO: 66) was able to compete off 50% of the binding of PLAP-mOstn in the ˜1-10 nM range, in contrast to Ostn[117-130] (SEQ ID NO: 71) that was unable to efficiently compete up to 100 nM (FIG. 7B).

[5] = target: T1, human NPR-C (natriuretic peptide …); experiment: cell-based or functional assay
[6] = target: T4, endogenous GC-A of HEK293 cells (human, UniProt P16066 33-1061); experiment: cell-based or functional assay
T4 sequence (looked up): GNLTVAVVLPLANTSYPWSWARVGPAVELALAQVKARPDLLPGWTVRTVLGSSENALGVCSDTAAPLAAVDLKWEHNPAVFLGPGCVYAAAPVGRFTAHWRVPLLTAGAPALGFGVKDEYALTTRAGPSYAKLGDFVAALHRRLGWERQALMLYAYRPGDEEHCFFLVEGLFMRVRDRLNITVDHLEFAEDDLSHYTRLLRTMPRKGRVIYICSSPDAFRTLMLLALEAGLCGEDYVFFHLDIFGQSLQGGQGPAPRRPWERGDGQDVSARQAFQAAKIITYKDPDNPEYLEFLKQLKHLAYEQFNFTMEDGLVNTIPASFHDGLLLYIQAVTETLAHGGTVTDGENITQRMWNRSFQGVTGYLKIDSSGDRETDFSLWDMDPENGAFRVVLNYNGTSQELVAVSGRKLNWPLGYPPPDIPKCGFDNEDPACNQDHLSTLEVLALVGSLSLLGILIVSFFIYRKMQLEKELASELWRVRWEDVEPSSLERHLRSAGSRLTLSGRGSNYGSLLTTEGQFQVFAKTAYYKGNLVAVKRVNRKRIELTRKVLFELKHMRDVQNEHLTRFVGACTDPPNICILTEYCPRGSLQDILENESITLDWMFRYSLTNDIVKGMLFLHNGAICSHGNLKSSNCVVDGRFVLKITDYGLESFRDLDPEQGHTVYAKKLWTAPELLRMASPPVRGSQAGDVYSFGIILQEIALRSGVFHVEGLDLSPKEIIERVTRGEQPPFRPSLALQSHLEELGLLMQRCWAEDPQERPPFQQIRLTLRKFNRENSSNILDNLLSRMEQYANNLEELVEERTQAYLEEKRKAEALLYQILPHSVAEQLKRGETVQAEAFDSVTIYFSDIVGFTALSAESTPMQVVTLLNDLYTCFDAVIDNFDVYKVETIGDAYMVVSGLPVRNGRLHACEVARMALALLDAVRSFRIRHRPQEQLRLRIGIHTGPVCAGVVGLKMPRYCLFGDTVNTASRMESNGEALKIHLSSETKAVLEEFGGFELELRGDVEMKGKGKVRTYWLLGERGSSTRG

[7] = target: T5, NPR-C on ATDC5 cells (mouse chondrogenic cell line) (mouse, UniProt P70180 41-536); experiment: displacement of 125I-Ostn[83-133] from ATDC5 cells
T5 construct: whole, on cells; also called ATDC5 cells surface
T5 sequence (looked up): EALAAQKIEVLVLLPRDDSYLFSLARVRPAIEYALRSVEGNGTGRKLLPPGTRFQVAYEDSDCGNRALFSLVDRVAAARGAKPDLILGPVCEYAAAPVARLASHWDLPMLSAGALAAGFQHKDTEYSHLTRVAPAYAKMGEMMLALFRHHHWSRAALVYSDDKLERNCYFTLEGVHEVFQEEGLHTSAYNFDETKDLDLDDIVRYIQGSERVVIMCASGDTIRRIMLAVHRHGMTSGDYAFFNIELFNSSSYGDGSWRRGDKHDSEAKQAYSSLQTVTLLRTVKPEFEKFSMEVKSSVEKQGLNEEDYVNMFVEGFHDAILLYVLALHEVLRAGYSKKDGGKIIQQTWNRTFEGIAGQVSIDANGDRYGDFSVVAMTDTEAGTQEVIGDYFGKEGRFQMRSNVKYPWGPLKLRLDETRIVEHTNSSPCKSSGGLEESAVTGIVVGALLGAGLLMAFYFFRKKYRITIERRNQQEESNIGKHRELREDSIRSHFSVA
Method: (SEQ ID NO: 41) for 90 min at 4° C. After incubation, cells were washed twice with ice-cold PBS and solubilized with 0.5-ml of 0.5 M NaOH.
The radioactivity was measured with gamma-counter (Wallac). […] (SEQ ID NO: 41) and the IC₅₀ calculated was 4.7 nM. […] (SEQ ID NO: 41) (FIG. 12b).

B1: PLAP-Ostn fusion protein (N-terminal secreted placental alkaline phosphatase moiety linked to mouse Ostn[29-130]) (other)
chain: DAAQPARRARRTYEAYVRSSGIIPVEEENPDFWNREAAEALGAAKKLQPAQTAAKNLIIFLGDGMGVSTVTAARILKGQKKDKLGPEIPLAMDRFPYVALSKTYNVDKHVPDSGATATAYLCGVKGNFQTIGLSAAARFNQCNTTRGNEVISVMNRAKKAGKSVGVVTTTRVQHASPAGTYAHTVNRNWYSDADVPASARQEGCQDIATQLISNMDIDVILGGGRKYMFPMGTPDPEYPDDYSQGGTRLDGKNLVQEWLAKRQGARYVWNRTELMQASLDPSVTHLMGLFEPGDMKYEIHRDSTLDPSLMEMTEAALRLLSRNPRGFFLFVEGGRIDHGHHESRAYRALTETIMFDDAIERAGQLTSEEDTLSLVTADHSHVFSFGGYPLRGSSIFGLAPGKARDRKAYTVLLYGNGPGYVLKDGARPDVTESESGSPEYRQQSAVPLDEETHAGEDVAVFARGPQAHLVHGVQEQTFIAHVMAFAACLEPYTACDLAPPAGTTDAAHPGYLDLASQEFGTASLQSPPTAREEKSATELSAKLLRLDDLVSLENDVFETKKKRSFSGFGSPLDRLSAGSVEHRGKQRKAVDHSKKRFGIPMDRIGRNRLSSSRG
notes: Used as conditioned medium of transfected HEK293 cells; also called PLAP-mOstn
B1 was tested. Which EC50 [1] did it give?
Its EC50 is about 30 nM.

Does B1 bind [2]?
Result: no binding

Does B1 bind [3]?
Result: no binding

What does the source list for YDHSKKRFGIPMDRIGRNRLSNSR-NH2 [mouse amidated Ostn[107-129] synthetic C-terminal peptide]?
IC50 [4]: 1 to 10 nM; cGMP levels of NPR-C-expressing HEK293 cells with 0.1 nM ANP and 10 nM Ostn[107-129] [5]: 4 fold

With SLRRSSCFGGRIDRIGAQSGLGCNSFRY (ligand, ends and bridges not checked; cysteine pairing not given here) [Rat ANP (1-28)] as the binder, how does the “increase in cGMP levels upon stimulation of NPR-C-overexpressing HEK293 cells with 0.1 nM ANP[1-28]” value [5] read?
Its value is 1.5 fold.

And the “increase in cGMP levels upon ANP stimulation of GFP-transfected HEK293 cells” value [6]?
Its value is 9 fold.

B2: human Ostn[83-133] (cold) (peptide)
peptide: SFSGFGSPLDRLSAGSVDHKGKQRKVVDHPKRRFGIPMDRIGRNRLSNSRG
notes: Bought from Phoenix Pharmaceutical co
With B2 as the binder, how does the IC50 [7] read?
Its IC50 is 4.7 nM.
